Experiments:
4T1 cells = experiment: Wound healing assay; assay type: cell-based; conditions: 10 μM Adenosine or 50 μM ADA or both; wound area at 48 hrs
Method: Briefly, 4T1 cells were cultured to confluence in 35 mm dishes in triplicates. 12 hrs later cell were rinsed with PBS and starved in low serum media (1.5 ml; 0.5%-0.1% serum in RPMI) overnight. […] Pictures were taken immediately of the wound area in phase contrast and 10× and another at 48 hrs. Wound area was calculated using imagej and plotted.

HT29 cells = experiment: Effect of cAdo on cell proliferation (WST 1); assay type: cell-based; conditions: cAdo at 10 μM and above, WST 1 after 5 days
Method: 10^4 cells were seeded in 96 well dish in 100 μl. 12 hrs later the cells were treated with […] and 50 μM of cAdo and the cells were later assayed for cell number quantitatively using WST 1 reagent after 5 days. Briefly 10 μl of WST1 reagent was added to each well. The cells were incubated for 4 hrs. OD was measured using microtiter plate reader at 460 nm.

[1] = intramuscular injection; cited from earlier work
[2] = Stability of mADA enzymatic activity in cell culture medium; assay type: physicochemical; conditions: culture medium of 4T1, MCF7 and T47D cells; supernatant after 24 h, 48 h and 72 h; even after 3 days
Method: 4T1, MCF7 and T47D cells (1×10^5) were grown in 96 wells culture dish.

[3] = Enzyme activity of mADA-His and mADA-Fc (Adenosine Deaminase Assay Kit); assay type: biochemical; conditions: supernatant media of transfected HEK293F cells; OD at 550 nm
Method: Enzyme activity of mADA-His and mADA-Fc was assayed with Adenosine Deaminase Assay Kit (BQ 014-EALD). Briefly the 180 μl of reagent 1 was added to 96-well plate. Followed by 5 μl of supernatant media obtained from HEK293F cells transfected with mADA-His or mADA-Fc. Later 90 μl of reagent was added to each well and incubated for 8 mins at 37° C. The OD was measured at 550 nm.

## Nc1ncnc2c1ncn2[C@@H]1O[C@H](CO)[C@@H](O)[C@H]1O [Ado, adenosine, reference compound]
4T1 cells
  Wound healing ability of 4T1 cells: marginally promoted wound healing

## Nc1nc(Cl)nc2c1ncn2[C@@H]1O[C@H](CO)[C@@H](O)[C@H]1O [cAdo, 2-chloro Ado]
HT29 cells
  Rate of cell proliferation: marginal increase

B1: ADA: Adenosine deaminase (EC 3.5.4.4), enzyme degrading Ado into inosine and ammonia (protein, UniProt P00813 2-363, looked up)
Adenosine deaminase: AQTPAFDKPKVELHVHLDGSIKPETILYYGRRRGIALPANTAEGLLNVIGMDKPLTLPDFLAKFDYYMPAIAGCREAIKRIAYEFVEMKAKEGVVYVEVRYSPHLLANSKVEPIPWNQAEGDLTPDEVVALVGQGLQEGERDFGVKARSILCCMRHQPNWSPKVVELCKKYQQQTVVAIDLAGDETIPGSSLLPGHVQAYQEAVKSGIHRTVHAGEVGSAEVVKEAVDILKTERLGHGYHTLEDQALYNRLRQENMHFEICPWSSYLTGAWKPDTEHAVIRLKNDQANYSLNTDDPLIFKSTLDTDYQMTKRDMGFTEEEFKRLNINAAKSSFLPEDEKRELLDLLYKAYGMPPSASAGQNL
4T1 cells
  Wound healing ability of 4T1 cells: did not alter the wound healing ability

B2: bADA: bovine adenosine deaminase; PEGylated bADA is FDA approved (protein, UniProt P56658 2-363, looked up)
Adenosine deaminase: AQTPAFNKPKVELHVHLDGAIKPETILYYGRKRGIALPADTPEELQNIIGMDKPLSLPEFLAKFDYYMPAIAGCREAVKRIAYEFVEMKAKDGVVYVEVRYSPHLLANSKVEPIPWNQAEGDLTPDEVVSLVNQGLQEGERDFGVKVRSILCCMRHQPSWSSEVVELCKKYREQTVVAIDLAGDETIEGSSLFPGHVKAYAEAVKSGVHRTVHAGEVGSANVVKEAVDTLKTERLGHGYHTLEDATLYNRLRQENMHFEVCPWSSYLTGAWKPDTEHPVVRFKNDQVNYSLNTDDPLIFKSTLDTDYQMTKNEMGFTEEEFKRLNINAAKSSFLPEDEKKELLDLLYKAYGMPSPASAEQCL
[1]
  Toxicity: not shown any toxicity

B3: mADA: recombinant purified mouse adenosine deaminase (protein, UniProt P03958 2-352, looked up)
Adenosine deaminase: AQTPAFNKPKVELHVHLDGAIKPETILYFGKKRGIALPADTVEELRNIIGMDKPLSLPGFLAKFDYYMPVIAGCREAIKRIAYEFVEMKAKEGVVYVEVRYSPHLLANSKVDPMPWNQTEGDVTPDDVVDLVNQGLQEGEQAFGIKVRSILCCMRHQPSWSLEVLELCKKYNQKTVVAMDLAGDETIEGSSLFPGHVEAYEGAVKNGIHRTVHAGEVGSPEVVREAVDILKTERVGHGYHTIEDEALYNRLLKENMHFEVCPWSSYLTGAWDPKTTHAVVRFKNDKANYSLNTDDPLIFKSTLDTDYQMTKKDMGFTEEEFKRLNINAAKSSFLPEEEKKELLERLYREYQ
[2]
  ADA enzyme activity in cell culture medium: retained its activity

B4: mADA-His: mADA with His tag expressed in HEK293F cells, purified with Ni-NTA column (protein, UniProt P03958 2-352, looked up)
Adenosine deaminase: B3 Adenosine deaminase
modifications: His tag
[3]
  Enzyme activity in supernatant: enzymatically active

From patent US10874724B2, “Enzymatic immunomodulation of solid tumors and uses thereof” (University of Houston System, priority 2015, dated 2020)
